{"source": "paper PMC12502762", "biological_target": "PA domain 3 (Bacillus anthracis)", "sequence (P13423 517-624 limits assumed)": "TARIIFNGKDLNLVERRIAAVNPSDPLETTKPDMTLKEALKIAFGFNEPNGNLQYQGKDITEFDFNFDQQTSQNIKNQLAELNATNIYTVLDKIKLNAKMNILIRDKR", "assay": "ELISA"}
{"binder": "antibody 8A7 (antibody, V domains shown) VH: EVQLLESGGGLVQPGGSLRLSCAASGFSFSSYAMSWVRQAPGTGLEWVSGISGSGDNIYYADSVKGRFTISRDNSKNTVYMQMNSLRAEDTALYYCAKFSGHYGSGSFHLPEYFQHWGQGTLVTVSS VL: DIQMTQSPATLSASIGDRVTITCRASQSISSWLAWYQQKPGKAPKVLIYKASRLESGVPSRFSGSGSGTEFTLTISSLQPDDFATYYCQQYNTYWTFGQGTKVEIIR", "values": [{"measurement": "EC50", "value": 60, "unit": "pM"}]}
